Here are results for 6 molecules from patent publication US20250321223A1 (KEMIJSKI INSTITUT, published 2025).

Assay [1] concerns the target T1, nLuc:cPPARγ.
T1 construct: Expressed in HEK293T cells from pcDNA3; also called Myc:gsg:nLuc:gs10:cPPARγ; cSplit of PPARγ CISPA sensor
T1 chain: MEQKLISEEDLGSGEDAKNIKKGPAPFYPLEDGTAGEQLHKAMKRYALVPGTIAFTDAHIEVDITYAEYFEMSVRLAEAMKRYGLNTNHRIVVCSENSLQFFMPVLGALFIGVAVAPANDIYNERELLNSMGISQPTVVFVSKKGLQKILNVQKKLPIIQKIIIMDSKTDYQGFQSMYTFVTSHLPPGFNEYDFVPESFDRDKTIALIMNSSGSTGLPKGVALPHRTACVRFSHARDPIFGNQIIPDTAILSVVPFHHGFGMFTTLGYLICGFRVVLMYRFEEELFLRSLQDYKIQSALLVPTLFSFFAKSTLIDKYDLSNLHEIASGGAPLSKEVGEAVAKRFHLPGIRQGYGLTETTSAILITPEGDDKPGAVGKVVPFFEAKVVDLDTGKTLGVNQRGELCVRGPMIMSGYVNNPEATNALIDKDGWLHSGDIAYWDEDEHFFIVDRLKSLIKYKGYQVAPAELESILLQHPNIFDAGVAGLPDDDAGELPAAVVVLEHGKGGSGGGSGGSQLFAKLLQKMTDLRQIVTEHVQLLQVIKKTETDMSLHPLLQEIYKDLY
As to the kind of experiment: split firefly luciferase complementation in HEK293T cells, ligand dose response (FIG. 2E).
Method: (§1) 50 ng of each plasmid encoding CISPA sensor pair was transiently co-transfected in HEK293T cells which were 24 h post-transfection stimulated with the indicated ligands. […] Replicates represent HEK293T cell cultures, individually transfected with the same mixture of plasmids. The values represent the mean and standard deviation of replicates within two to three independent experiments (n=4). Data was plotted as a standard dose response curve.
(§2) The fusion constructs were simultaneously expressed in the HEK293T cell line. […] Following this dimerization, the split reporter fragments (nLuc and cLuc) are brought into the proximity, leading to their reconstitution and measurable output signal (emitted light). The plasmids encoding for the CISPA sensors based on split LBDs were transiently transfected into the HEK293T cell line. […]
(§3) Two days after transfection, the cells were harvested and lysed with 25 μl of 1× passive lysis buffer (Promega). Firefly luciferase and Renilla luciferase expression were measured using a dual luciferase assay (Promega) and an Orion II microplate reader (Berthold Technologies). […] Relative luciferase activity (RLU) was calculated by normalizing each sample's firefly luciferase activity to the constitutive Renilla luciferase activity determined within the same sample.

The target in assay [2] is T2, nLuc:cTRβ.
T2 construct: also called Myc:gsg:nLuc:gs10:cTRβ; cSplit of TRβ CISPA sensor
T2 chain: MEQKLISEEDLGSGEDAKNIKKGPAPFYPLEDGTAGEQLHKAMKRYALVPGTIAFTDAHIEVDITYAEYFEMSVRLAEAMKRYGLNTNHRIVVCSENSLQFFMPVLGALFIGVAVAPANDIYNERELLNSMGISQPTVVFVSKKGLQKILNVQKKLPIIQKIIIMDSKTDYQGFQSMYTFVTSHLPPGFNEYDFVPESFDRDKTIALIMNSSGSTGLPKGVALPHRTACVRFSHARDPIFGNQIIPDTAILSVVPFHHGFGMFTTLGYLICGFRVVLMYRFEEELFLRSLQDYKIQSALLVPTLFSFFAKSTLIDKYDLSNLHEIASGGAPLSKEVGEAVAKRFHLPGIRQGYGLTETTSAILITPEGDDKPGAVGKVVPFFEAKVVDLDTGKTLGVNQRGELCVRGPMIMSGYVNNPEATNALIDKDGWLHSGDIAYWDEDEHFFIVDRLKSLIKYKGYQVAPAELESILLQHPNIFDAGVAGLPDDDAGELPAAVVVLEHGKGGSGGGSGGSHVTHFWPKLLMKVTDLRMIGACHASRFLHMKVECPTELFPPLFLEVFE
As to the kind of experiment: split firefly luciferase complementation in HEK293T cells, ligand dose response (FIG. 2D).

The target in assay [3] is T3, nLuc:cDHFR (human, UniProt P08659 2-491 = luciferase).
T3 construct: Expressed in HEK293T cells from pcDNA3; also called Myc:gsg:nLuc:gs10:cDHFR; cSplit of DHFR CISPA sensor
As to the kind of experiment: split firefly luciferase complementation in HEK293T cells, methotrexate or pralatrexate dose response (FIG. 3B).
Method: (§4) Cell cultures of HEK293T cells were grown at 37° C. and 5% CO₂. For cultivation, DMEM medium with 10% FBS, containing all the necessary nutrients and growth factors was used. When the cell population reached a sufficient density, the cells were transferred to a new flask and/or diluted. For use in experiments, the number of cells was determined by the Countess automated cell counter (Invitrogen). A 96-well microtiter plate, suitable for growing cell cultures, was inoculated with 2*10⁴ cells per well 24 hours prior to transfection. Inoculated plates were incubated at 37° C. and 5% CO₂. […] Twelve hours after transfection, the cells were stimulated by removing the media and replacing it with media containing selected ligands. Cells were stimulated for 24 hours.
as §3
The plasmids encoding for CISPA sensor was transiently co-transfected into HEK293T cell line. […]

Assay [4] addresses T4, nLuc:cLyn.
T4 construct: Expressed in HEK293T cells from pcDNA3; also called Myc:gsg:nLuc:gs10:cLyn; cSplit of Lyn CISPA sensor
As to the kind of experiment: split firefly luciferase complementation in HEK293T cells, dasatinib dose response (FIG. 3A).
Method: as §4, §3
The plasmids encoding for designed CISPA sensor were transiently co-transfected into HEK293T cell line. […]

In assay [5] the target is T5, nLuc:cGR2.
T5 construct: Expressed in HEK293T cells from pcDNA3; also called Myc:gsg:nLuc:gs10:cGR2; cSplit of GR2 CISPA sensor
T5 chain: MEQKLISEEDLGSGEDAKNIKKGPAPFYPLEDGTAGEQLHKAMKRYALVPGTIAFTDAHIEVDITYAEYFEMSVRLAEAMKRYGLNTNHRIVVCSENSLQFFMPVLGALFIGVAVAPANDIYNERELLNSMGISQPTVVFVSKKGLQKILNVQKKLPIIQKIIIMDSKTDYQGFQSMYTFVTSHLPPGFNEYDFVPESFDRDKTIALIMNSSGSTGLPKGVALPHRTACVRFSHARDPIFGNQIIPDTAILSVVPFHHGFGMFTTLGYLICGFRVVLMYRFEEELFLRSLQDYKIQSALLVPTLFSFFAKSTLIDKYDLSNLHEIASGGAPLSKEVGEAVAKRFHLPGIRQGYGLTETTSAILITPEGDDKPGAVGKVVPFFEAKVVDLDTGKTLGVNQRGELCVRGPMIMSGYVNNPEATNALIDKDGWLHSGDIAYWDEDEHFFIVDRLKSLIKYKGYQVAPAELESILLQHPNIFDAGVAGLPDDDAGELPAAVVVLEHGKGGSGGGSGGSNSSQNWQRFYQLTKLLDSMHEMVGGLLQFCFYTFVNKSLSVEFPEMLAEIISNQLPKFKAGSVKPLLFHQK
As to the kind of experiment: split firefly luciferase complementation in HEK293T cells; dimerization only with cognate ligand.
Method: as §1, §2, §3

The target in assay [6] is T6, nLuc:cERβ.
T6 construct: Expressed in HEK293T cells from pcDNA3; also called Myc:gsg:nLuc:gs10:cERβ; cSplit of ERβ CISPA sensor
T6 chain: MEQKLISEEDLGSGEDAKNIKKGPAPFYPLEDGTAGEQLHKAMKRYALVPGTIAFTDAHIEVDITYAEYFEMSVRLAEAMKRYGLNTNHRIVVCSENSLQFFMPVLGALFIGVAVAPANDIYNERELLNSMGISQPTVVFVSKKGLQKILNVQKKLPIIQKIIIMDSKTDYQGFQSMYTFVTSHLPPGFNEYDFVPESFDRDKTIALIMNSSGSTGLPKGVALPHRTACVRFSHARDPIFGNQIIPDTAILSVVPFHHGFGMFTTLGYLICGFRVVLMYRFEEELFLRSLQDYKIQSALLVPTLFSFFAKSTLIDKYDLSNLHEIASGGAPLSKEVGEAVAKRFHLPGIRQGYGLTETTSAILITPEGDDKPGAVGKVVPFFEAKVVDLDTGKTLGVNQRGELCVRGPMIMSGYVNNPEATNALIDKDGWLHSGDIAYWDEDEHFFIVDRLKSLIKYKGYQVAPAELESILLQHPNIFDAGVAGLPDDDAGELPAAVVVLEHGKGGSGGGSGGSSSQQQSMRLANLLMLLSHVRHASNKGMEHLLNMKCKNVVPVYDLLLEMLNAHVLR
As to the kind of experiment: split firefly luciferase complementation in HEK293T cells, ligand dose response (FIG. 2C).
Method: as §1, §2, §3

B1: nPPARγ:cLuc (other)
chain: MGSHMLNPESADLRALAKHLYDSYIKSFPLTKAKARAILTGKTTDKSPFVIYDMNSLMMGEDKIKFKHITPLQEQSKEVAIRIFQGCQFRSVEAVQEITEYAKSIPGFVNLDLNDQVTLLKYGVHEIIYTMLASLMNKDGVLISEGQGFMTREFLKSLRKPFGDFMEPKFEFAVKFNALELDDSDLAIFIAVIILSGDRPGLLNVKPIEDIQDNLLQALELQLKLNHPESSGGSGGGSGGSTMTEKEIVDYVASQVTTAKKLRGGVVFVDEVPKGLTGKLDARKIREILIKAKKGGKIAVNSGSGYPYDVPDYA
notes: Expressed in HEK293T cells from pcDNA3; also called nPPARγ:gs10:cLuc:gsg:HA; nSplit of PPARγ CISPA sensor
Take B1: in assay [1], the binding result is “binds”.

B2: nTRβ:cLuc (other)
chain: MHMEELQKSIGHKPEPTDEEWELIKTVTEAHVATNAQGSHWKQKRKFLPEDIGQAPIVNAPEGGKVDLEAFSHFTKIITPAITRVVDFAKKLPMFCELPCEDQIILLKGCCMEIMSLRAAVRYDPESETLTLNGEMAVTRGQLKNGGLGVVSDAIFDLGMSLSSFNLDDTEVALLQAVLLMSSDRPGLACVERIEKYQDSFLLAFEHYINYRKHGGSGGGSGGSTMTEKEIVDYVASQVTTAKKLRGGVVFVDEVPKGLTGKLDARKIREILIKAKKGGKIAVNSGSGYPYDVPDYA
notes: also called nTRβ:gs10:cLuc:gsg:HA; nSplit of TRβ CISPA sensor
Consider B2, for which, in assay [2], the binding result is given as “binds”.

B3: nDHFR:cLuc (other)
chain: MVGSLNCIVAVSQNMGIGKNGDLPWPPLRNEFRYFQRMTTTSSVEGKQNLVIMGKKTWFSIPEKNRPLKGRINLVLSRELKEPPQGAHFLSRSLDDALKLTEQPELANKVDMVWIVGGSSVYKEAMNHPGHLKLFVTRIMQDFESDTFFPEIDLEKYKLLPEYPGVLSDVQEEKGGSGGGSGGSTMTEKEIVDYVASQVTTAKKLRGGVVFVDEVPKGLTGKLDARKIREILIKAKKGGKIAVNSGSGYPYDVPDYA
notes: Expressed in HEK293T cells from pcDNA3; also called nDHFR:gs10:cLuc:gsg:HA; nSplit of DHFR CISPA sensor
Turning to B3, the binding result in assay [3] was “binds”.

B4: nLyn:cLuc (other)
chain: MAWEIPRESIKLVKRLGAGQFGEVWMGYYNGGSGGGSGGSTMTEKEIVDYVASQVTTAKKLRGGVVFVDEVPKGLTGKLDARKIREILIKAKKGGKIAVNSGSGYPYDVPDYA
notes: Expressed in HEK293T cells from pcDNA3; also called nLyn:gs10:cLuc:gsg:HA; nSplit of Lyn CISPA sensor
For the molecule B4, the binding result in assay [4] is listed as “binds”.

B5: nGR2:cLuc (other)
chain: MLISLLEVIEPEVLYSGYDSTLPDTSTRLMSTLNRLGGRQVVSAVKWAKALPGFRNLHLDDQMTLLQYSWMSLMAFSLGWRSYKQSNGNMLCFAPDLVINEERMQLPYMYDQCQQMLKISSEFVRLQVSYDEYLCMKVLLLLSTVPKDGLKSQAVFDEIRMTYIKELGKAIVKREGGGSGGGSGGSTMTEKEIVDYVASQVTTAKKLRGGVVFVDEVPKGLTGKLDARKIREILIKAKKGGKIAVNSGSGYPYDVPDYA
notes: Expressed in HEK293T cells from pcDNA3; also called nGR2:gs10:cLuc:gsg:HA; nSplit of GR2 CISPA sensor
With B5, in assay [5], the binding result is recorded as “binds”.

B6: nERβ:cLuc (other)
chain: MDALSPEQLVLTLLEAEPPHVLISRPSAPFTEASMMMSLTKLADKELVHMISWAKKIPGFVELSLFDQVRLLESCWMEVLMMGLMWRSIDHPGKLIFAPDLVLDRDEGKCVEGILEIFDMLLATTSRFRELKLQHKEYLCVKAMILLNSSMYPLVTATQDADSSRKLAHLLNAVTDALVWVIAKSGIGGSGGGSGGSTMTEKEIVDYVASQVTTAKKLRGGVVFVDEVPKGLTGKLDARKIREILIKAKKGGKIAVNSGSGYPYDVPDYA
notes: Expressed in HEK293T cells from pcDNA3; also called nERβ:gs10:cLuc:gsg:HA; nSplit of ERβ CISPA sensor
Take B6: the binding result in assay [6] is listed as “binds”.
